Data from patent US8956838B2, “Carboxyl esterase polypeptides” (B.R.A.I.N., priority 2006, dated 2015).

Tests used:
[1] = Enzyme activity fingerprinting with substrate cocktails; assay type: biochemical; settings: substrate 7-(3-octylcarboxy-(3-hydroxy-3-methyl-butyloxy))-coumarine; fingerprint analysis, 15 μM, 30 min
Description: The enzyme activity fingerprinting used 10 substrates and was carried out as described previously. The assay conditions were 75% PBS buffer at pH 7.4, 25% DMSO and 0.0025% SDS. Each substrate was present in the cocktail at 15 μM, the total concentration of the substrate cocktail was 150 μM. EstA3 was added at a concentration of 0.75 mg/L and EstCE1 at 0.2075 mg/L. The reaction time was 30 min. The chemical background was measured by recording the products observed under the same assay conditions after a 5 day incubation in the absence of the enzyme. The blank value was taken from the reaction after 30 min incubation in the absence of the enzyme.

[2] = Enantioselectivity, GC analysis of hydrolysis of acetic acid esters; assay type: biochemical; settings: for conversion %: ^2 only complete conversion could be measured
Description: To assay the activity of the enzymes on a range of acetic acid esters gas chromatography was used. The samples were analyzed for the production of chiral alcohols by the gas chromatograph GC-17A (Shimadzu, Duisburg, Germany) equipped with FID detector and CP-Chirasil-DEX CB (Chrompack (Middelburg, Netherlands), 25 m×0.25 mm ID) at a helium flow of 1.3 ml/min. The temperature programme included: 5 min at 60° C., followed by an increase of 5° C. per min until 190° C. was reached. For the GC analysis, activity-tests were run in 1 M Tris buffered solutions and using 10 mM substrates dissolved in DMSO as 0.1 M stock solutions. 2 μg of the enzyme were added and tests incubated over night before the corresponding alcohols could be extracted by treatment with acetic acid ethyl ester and analyzed by GC.

[3] = acetic acid ester of R-(+)-3-chlor-1-phenyl-1-propanol
[4] = acetic acid ester of rac-1-octin-3-ol
[5] = acetic acid ester of trimethylsilylbutinol
[6] = substrate Acetic acid ester of tetrahydronaphthylamin
[7] = substrate acetic acid ester of (+/−)-1-octin-3-ol
[8] = substrate acetic acid ester of (+/−)-1-octin-3-ol, 10 mM, over night
[9] = substrate acetic acid ester of R-(+)-3-chlor-1-phenyl-1-propanol
[10] = substrate acetic acid ester of cis-1,2-cyclohexandiol, values marked ^1: substrate conversion after 12 h
[11] = substrate acetic acid ester of phenylethylamin
[12] = substrate acetic acid ester of trans-1,2-cyclohexandiol
[13] = substrate acetic acid ester of trans-1,2-cyclohexandiol, in text: conversion of the preferred enantiomer
[14] = substrate acetic acid ester of trimethylsilylbutinol
[15] = substrate cis-3,5-diacetoxy-1-cyclopenten
[16] = substrate cis-3,5-diacetoxy-1-cyclopenten, conversion for the preferred enantiomer
[17] = substrate isopropylidenglycerolacetate (rac.), values marked ^1: substrate conversion after 12 h
[18] = substrate menthylacetate, 1. enantiomer (+)
[19] = substrate menthylacetate, 2.e. (−)

| Molecule | hydrolysis, in words [2, 3] | hydrolysis, in words [2, 4] | hydrolysis, in words [2, 5] | conversion % of 1.e [2, 6] | conversion % of 2.e [2, 6] | ee % [2, 7] | conversion % of 1.e [2, 8] | conversion % of 2.e [2, 8] | conversion % [2, 9] | conversion % of 1.e [2, 10] | conversion % of 2.e [2, 10] | conversion % of 1.e [2, 11] | conversion % of 2.e [2, 11] | conversion % of 2.e [2, 12] | conversion % of 1.e [2, 13] | conversion % [2, 14] | conversion % of 2.e [2, 15] | ee % [2, 15] | conversion % of 1.e [2, 16] | conversion % of 1.e [2, 17] | also measured |
| --- | --- | --- | --- | --- | --- | --- | --- | --- | --- | --- | --- | --- | --- | --- | --- | --- | --- | --- | --- | --- | --- |
| EstA3: recombinant enzyme having carboxyl esterase activity, amino acid sequence SEQ ID NO: 2, family VIII of bacterial lipolytic enzymes (protein, metagenomic sequence) MSAEELGFLPDRLARISDHIQTNYLDNGKLPFASLLIGRGDDIALQWSSGVADDAIFRIASMTKPVTSVAFMQLVEQGKVALTDPVAKYIPEFAKLGVFVAGGGNIPFVSRPPTMPMRIVDVLRHTTGFTYSFQERSNIDAAYRKTDVESWTRSTSQSFIDTLAEIPLEFDPGTQWNYSVSTDVLGILIERISGQSLPDYFRDHIFAPLGMVDTCFTVPADKAARIPQCFAFDPATKMKLFDEAGASSLWTKGWSFNSGGGGLASSVADYHRFCRMLLNGGALDGIQIISPKTLELMTANHLPGGQDLTQMSKSLFSEAEMAGIGFGLGFATTIDSVATLTPCSTGDFYWGGMYSTAFFVDPVEDIIMIFMTQLMPSSTYPVRREIKTMIYSALAA | capable of hydrolyzing | capable of hydrolyzing | capable of hydrolyzing | 0% | 0% | 12% | 24% | 18% | 6^2% | 0% | 0% | 0% | 0% | 0% | 0% | 45^2% | 0% | 100% | 24% | 0% | conversion of secondary ester, in words [1]: able to convert; conversion % of 2.e [2, 17]: 0%; conversion % of 1.e [2, 18]: 0%; conversion % of 2.e [2, 19]: 0% |
| EstCE1: recombinant enzyme having carboxyl esterase activity, amino acid sequence SEQ ID NO: 4, family VIII of bacterial lipolytic enzymes (protein, metagenomic sequence) MSIADQSLAKRVQGVSQQAIDEGRIVGSVVLIARHGRVIYANASGYADREQKKPMVRETQFRLSSVSKPYITLAAMRMIEQQKLGLDDTVSRWLPWFTPALADGVRPPIKIRHLLSHTAGLDYRLSQPAEGPYHRLGIKDGMELSSLTLEQNLRLLAQADLLAEPGSEFRYSLAIDVLGAVLEQVAGEPLPQVFNHWVAQPLGLRNTGFYTTDVDNLATAYHDTAAEPEPIRDGMLLTLPEGFGFEIELAPSRALDAQAYPSGGAGMVGDADDVLQLVETLRTGKEGILQPATAALMRQAHVGSHAETQGPGWGFGFGGAVLEDAQLAATPQHNGTLQWGGVYGHSWFYDPQAAISVVALTNTAFEGMSGRYPLQIRDAVYGTNEPTR | capable of hydrolyzing | capable of hydrolyzing | capable of hydrolyzing | 0% | 0% | 3% | 64% | 60% | 100^2% | 100^1% | 100^1% | 0% | 0% | 45% | 100% | 100^2% | 59% | 66% | 12% | 100^1% | conversion, in words ([2]; acetic acid ester of cis-1,2-cyclohexanediol): capable of converting; conversion, in words ([2]; acetic acid ester of isopropylidene glycerol): capable of converting; ee % ([2]; substrate acetic acid ester of cis-1,2-cyclohexandiol): 0%; ee % [2, 12]: 38%; ee % ([2]; substrate isopropylidenglycerolacetate (rac.)): 0%; conversion % of 2.e [2, 17]: 100^1%; ee % ([2]; substrate menthylacetate (rac), for the (+)-enantiomer): 100%; conversion % of 1.e [2, 18]: 100%; conversion % of 2.e [2, 19]: 0% |
